Experiments:
[1] = substrate: Cc1cc(=O)oc2cc(NC(=O)[C@@H](N)CCCNC(=N)N)ccc12; assay: fluorescence of released amc, Hill equation fit; format: biochemical, Pyrococcus horikoshii; conditions: 50 mM sodium phosphate pH 7.5, 358 K, 60 min, aminopeptidase, 85.0 °C
Description: fluorescence of released amc, Hill equation fit on PH1704 protease

[2] = target: the molecule itself; assay: native gel or EMSA; non-denaturing PAGE (10% resolving gel, 5% stacking gel), Coomassie stain and anti-His western blot; size read against a high molecular weight protein marker

B1: recombinant PH1704 protease from Pyrococcus horikoshii OT3 (enzyme, UniProt O59413 1-166, looked up)
chain: MKVLFLTANEFEDVELIYPYHRLKEEGHEVYIASFERGTITGKHGYSVKVDLTFDKVNPEEFDALVLPGGRAPERVRLNEKAVSIARKMFSEGKPVASICHGPQILISAGVLRGRKGTSYPGIKDDMINAGVEWVDAEVVVDGNWVSSRVPADLYAWMREFVKLLK
notes: PH1704 protease, Pyrococcus horikoshii OT3, gene amplified from genomic DNA with primers at the start and at the stop codon, cloned NdeI/BamHI into pET-15b; The tag is known from detection with an anti-His tag antibody; also called WT; source: E. coli BL21 (DE3), purified (heat incubation at 80°C, Sephacryl S-200); copies: 12
For B1, the Km [1] was 12 ± 0.65 µM, the kcat [1] was 0.0108 ± 0.000833 s⁻¹ and the kcat/Km [1] was 867 ± 133 M⁻¹ s⁻¹. The “stoichiometry N” value [2] was 12.

B2: PH1704 protease (Pyrococcus horikoshii OT3; Y120P) (protein)
chain: MKVLFLTANEFEDVELIYPYHRLKEEGHEVYIASFERGTITGKHGYSVKVDLTFDKVNPEEFDALVLPGGRAPERVRLNEKAVSIARKMFSEGKPVASICHGPQILISAGVLRGRKGTSPPGIKDDMINAGVEWVDAEVVVDGNWVSSRVPADLYAWMREFVKLLK
notes: full-length gene in pET-15b (NdeI/BamHI), His-tag (detected by anti-His western blot), E. coli BL21(DE3); heat step and Sephacryl S-200
In the case of B2, the Km [1] is reported as 11.3 ± 0.59 µM, the kcat [1] is reported as 0.0728 ± 0.002 s⁻¹ and the kcat/Km [1] is reported as 6630 ± 417 M⁻¹ s⁻¹.

B3: PH1704 protease (Pyrococcus horikoshii OT3; Y120W) (protein)
chain: MKVLFLTANEFEDVELIYPYHRLKEEGHEVYIASFERGTITGKHGYSVKVDLTFDKVNPEEFDALVLPGGRAPERVRLNEKAVSIARKMFSEGKPVASICHGPQILISAGVLRGRKGTSWPGIKDDMINAGVEWVDAEVVVDGNWVSSRVPADLYAWMREFVKLLK
notes: as for B2
Work on B3 yielded a Km [1] of 20.6 ± 0.77 µM, a kcat [1] of 0.02 ± 0.00117 s⁻¹ and a kcat/Km [1] of 1100 ± 83.3 M⁻¹ s⁻¹.

B4: PH1704 protease (Pyrococcus horikoshii OT3; Y120S) (protein)
chain: MKVLFLTANEFEDVELIYPYHRLKEEGHEVYIASFERGTITGKHGYSVKVDLTFDKVNPEEFDALVLPGGRAPERVRLNEKAVSIARKMFSEGKPVASICHGPQILISAGVLRGRKGTSSPGIKDDMINAGVEWVDAEVVVDGNWVSSRVPADLYAWMREFVKLLK
notes: as for B2
Work on B4 yielded a Km [1] of 9.0 ± 0.43 µM, a kcat [1] of 0.00245 ± 0.000167 s⁻¹ and a kcat/Km [1] of 400 ± 66.7 M⁻¹ s⁻¹.
